Test results as given in article PMC10692165, “Structural basis of antibody inhibition and chemokine activation of the human CC chemokine receptor 8” (Nature Communications, 2023).
“And” between values parts separate entries of the source, which are not always exact repeats. Equal values may be shown once.

B1: anti-human CCR8 antibody mAb1 (IgG) (antibody, V domains shown)
VH: QSVEESGGRLVTPGTPLTLTCTVSGFSLSNYAMIWVRQAPGEGLEWVGTISLGGYTYYANWAKGRFTISKTSTTVDLKISSPTTEDTATYFCARARWSTDSAIYTYAFDPWGPGTLVTVSS
VL: AYDMTQTPASVEVAVGGTVTIKCQASQSISSYLSWYQQKPGQRPELLIYKASTLASGVSSRFKGSGSGTQFTLTISDLEAADAATYYCQQGYTSSNIDNIFGGGTEVVVK
notes: variable region and CH1 as the heavy chain of Fab1, deposited in PDB 8TLM; as the light chain of Fab1, deposited in PDB 8TLM; Raised in rabbits; a humanized version was also made; the IgG was detected with anti-human IgG (Fc) secondaries; In the radioligand assay the tracer was 125I-labelled mAb1 (random tyrosines); also called anti-hCCR8 mAb1; anti-CCR8 mAb1

Tests used:
[1] = molecular target: human CCR8 on CHO cells stably expressing human CCR8 (CHO.hCCR8) (human) (UniProt P51685); experiment: real-time cell binding (LigandTracer); hCCL1^AF647 added at 0.5, 10 and 50 nM in sequence to CHO.hCCR8 cells at room temperature, then dissociation in medium; signal of CHO wild-type cells subtracted; one-to-two step model
Chain of human CCR8 on CHO cells stably expressing human CCR8 (CHO.hCCR8) (human) (P51685 whole entry): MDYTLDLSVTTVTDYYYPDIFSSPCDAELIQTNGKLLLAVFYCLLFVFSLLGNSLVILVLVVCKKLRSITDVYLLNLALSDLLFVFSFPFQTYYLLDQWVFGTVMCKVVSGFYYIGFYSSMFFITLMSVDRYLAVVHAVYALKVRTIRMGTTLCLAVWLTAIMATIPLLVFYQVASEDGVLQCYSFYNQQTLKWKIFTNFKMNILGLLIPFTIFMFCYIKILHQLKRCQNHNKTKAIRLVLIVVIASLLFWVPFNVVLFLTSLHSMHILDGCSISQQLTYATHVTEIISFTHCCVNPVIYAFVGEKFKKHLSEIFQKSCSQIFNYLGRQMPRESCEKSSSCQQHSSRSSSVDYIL

[2] = molecular target: T1, human CCR8 on CHO cells stably expressing human CCR8 (CHO.hCCR8) (Homo sapiens, UniProt P51685); experiment: cell-based or functional assay
T1 sequence (P51685 whole entry): as above

[3] = molecular target: T1, human CCR8 on CHO cells stably …; experiment: radioligand binding; unlabeled mAb1 (from 50 nM, 1:3 dilutions) against a fixed concentration of 125I-mAb1 on CHO.CCR8 cells, room temperature, 18 h; heterologous one site-fit Ki competitive binding model; three independent experiments, not averaged; settings: one partner purified

Row | Molecule | KD of the high affinity binding event (slow on, slow off) [1] | KD of the low affinity binding event (fast on, fast off) [1] | Kd [1] | Ca^2+ influx (FLIPR) in CHO.hCCR8 cells: inhibition of the signal induced by a sub-maximal (EC80) concentration of CCL1 (blocks CCL1-CCR8); apparent IC50 [2] | Kd [3] | Ki [3]
1 | AlexaFluor647-labeled human CCL1 (hCCL1^AF647) (from UniProt P22362 24-96) (ligand) | 700 pM | 15000 pM | 1000 pM |  |  | 
2 | B1 |  |  |  | 57900 pM | 28.4 pM | 41.4 pM and 55.5 pM
